Earlier results in article PMC3078175.
pKd: −log10 of the molar value.

Biological target: IL-17RB (Homo sapiens) (UniProt Q9NRM6)
Sequence of UniProt Q9NRM6 (Q9NRM6 18-292): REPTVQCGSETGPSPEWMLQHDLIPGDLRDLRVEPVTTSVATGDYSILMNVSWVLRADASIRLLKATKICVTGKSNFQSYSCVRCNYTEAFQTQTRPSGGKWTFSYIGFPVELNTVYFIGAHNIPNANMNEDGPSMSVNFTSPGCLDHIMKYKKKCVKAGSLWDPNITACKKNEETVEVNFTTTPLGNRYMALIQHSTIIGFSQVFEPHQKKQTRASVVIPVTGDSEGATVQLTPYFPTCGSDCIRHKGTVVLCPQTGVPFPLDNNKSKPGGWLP

pKd: 8.12
Substance: IL-17B (from UniProt Q9UHF5)
